Patent publication US20140087995A1 (published 2014)
Numbered stars: 1 amine (or outer) side, 2 acyl side, 3 side chain; on linkers, the order of the positions; unused ones are H or OH. Bridge positions count the residues as written; N and C are the ends. Side chains are listed from the residue outwards. Ends that are not written are not given here. * marks the point of attachment. C20 diacid = O=C(O)CCCCCCCCCCCCCCCCCCC(=O)*; γGlu = O=C(O)[C@H](CCC(=O)[*:2])N[*:1]; AEEA = NCCOCCOCC(=O)O

T1: human calcitonin receptor (human, UniProt P30988 25-474)
T1 construct: whole, on cells; Assay used cell membranes of the transfected BHK cells; also called hCTR; hCT
T1 sequence (looked up): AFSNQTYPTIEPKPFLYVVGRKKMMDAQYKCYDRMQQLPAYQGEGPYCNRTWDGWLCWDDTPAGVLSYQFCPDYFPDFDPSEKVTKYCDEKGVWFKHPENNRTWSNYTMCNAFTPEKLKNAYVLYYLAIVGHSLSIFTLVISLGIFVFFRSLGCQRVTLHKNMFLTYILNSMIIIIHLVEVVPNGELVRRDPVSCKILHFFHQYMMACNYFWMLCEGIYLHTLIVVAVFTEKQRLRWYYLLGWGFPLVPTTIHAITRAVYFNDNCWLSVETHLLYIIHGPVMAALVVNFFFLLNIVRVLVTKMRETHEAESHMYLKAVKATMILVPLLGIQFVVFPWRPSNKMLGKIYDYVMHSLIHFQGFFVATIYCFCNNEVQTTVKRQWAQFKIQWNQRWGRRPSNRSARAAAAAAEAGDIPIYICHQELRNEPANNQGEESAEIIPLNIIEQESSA


Key:
[1] = molecular target: T1, human calcitonin receptor; assay: ratio IC50 hCTR / IC50 hAmylin-R of the two SPA competition assays; reference: human amylin receptor
Method in brief: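 Competition binding by SPA with cell membranes (35 ng/μL) and SPA beads in 50 mM Hepes pH 7.4 with 1 mM CaCl2, 5 mM MgCl2, 0.1% OA and 0.02% Tween20. Incubated 120 min at 25 °C with shaking, then counted.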

[2] = molecular target: T1, human calcitonin receptor; assay: SPA radioligand competition (125I-calcitonin), membranes of BHK cells with human calcitonin receptor
Method in brief: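 BHK hCTR membranes 35 ng/μL + SPA beads 0.05 mg/well; buffer 50 mM Hepes pH 7.4, 1 mM CaCl2, 5 mM MgCl₂, 0.1% OA, 0.02% Tween20. 120 min, 25° C., shaking. Scintillation count; IC50 by one-site binding competition.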

Row | Ratio hCT/hAmylin binding [1] | IC50 [2] | Binder
1 | 10.8 | 12.9 nM | K([AEEA-γGlu-C20 diacid])CNTATCATQRLANFLRHSSPNFGAIPSSTPVGSNTY-NH2 (disulfide 2-7; N-terminus assumed; SMILES CC[C@H](C)[C@H](NC(=O)[C@H](C)NC(=O)CNC(=O)[C@H](Cc1ccccc1)NC(=O)[C@H](CC(N)=O)NC(=O)[C@@H]1CCCN1C(=O)[C@H](CO)NC(=O)[C@H](CO)NC(=O)[C@H](Cc1c[nH]cn1)NC(=O)[C@H](CCCNC(=N)N)NC(=O)[C@H](CC(C)C)NC(=O)[C@H](Cc1ccccc1)NC(=O)[C@H](CC(N)=O)NC(=O)[C@H](C)NC(=O)[C@H](CC(C)C)NC(=O)[C@H](CCCNC(=N)N)NC(=O)[C@H](CCC(N)=O)NC(=O)[C@@H](NC(=O)[C@H](C)NC(=O)[C@@H]1CSSC[C@H](NC(=O)[C@@H](N)CCCCNC(=O)COCCOCCNC(=O)CC[C@H](NC(=O)CCCCCCCCCCCCCCCCCCC(=O)O)C(=O)O)C(=O)N[C@@H](CC(N)=O)C(=O)N[C@@H]([C@@H](C)O)C(=O)N[C@@H](C)C(=O)N[C@@H]([C@@H](C)O)C(=O)N1)[C@@H](C)O)C(=O)N1CCC[C@H]1C(=O)N[C@@H](CO)C(=O)N[C@@H](CO)C(=O)N[C@H](C(=O)N1CCC[C@H]1C(=O)N[C@H](C(=O)NCC(=O)N[C@@H](CO)C(=O)N[C@@H](CC(N)=O)C(=O)N[C@H](C(=O)N[C@@H](Cc1ccc(O)cc1)C(N)=O)[C@@H](C)O)C(C)C)[C@@H](C)O, Synthetic analogue; also called compound 49)
2 | 41.3 | 34.5 nM | K([γGlu-C20 diacid])CNTATCATQRLANFLRHSSPNFGAIPSSTNVGSETY-NH2 (disulfide 2-7; N-terminus assumed; SMILES CC[C@H](C)[C@H](NC(=O)[C@H](C)NC(=O)CNC(=O)[C@H](Cc1ccccc1)NC(=O)[C@H](CC(N)=O)NC(=O)[C@@H]1CCCN1C(=O)[C@H](CO)NC(=O)[C@H](CO)NC(=O)[C@H](Cc1c[nH]cn1)NC(=O)[C@H](CCCNC(=N)N)NC(=O)[C@H](CC(C)C)NC(=O)[C@H](Cc1ccccc1)NC(=O)[C@H](CC(N)=O)NC(=O)[C@H](C)NC(=O)[C@H](CC(C)C)NC(=O)[C@H](CCCNC(=N)N)NC(=O)[C@H](CCC(N)=O)NC(=O)[C@@H](NC(=O)[C@H](C)NC(=O)[C@@H]1CSSC[C@H](NC(=O)[C@@H](N)CCCCNC(=O)CC[C@H](NC(=O)CCCCCCCCCCCCCCCCCCC(=O)O)C(=O)O)C(=O)N[C@@H](CC(N)=O)C(=O)N[C@@H]([C@@H](C)O)C(=O)N[C@@H](C)C(=O)N[C@@H]([C@@H](C)O)C(=O)N1)[C@@H](C)O)C(=O)N1CCC[C@H]1C(=O)N[C@@H](CO)C(=O)N[C@@H](CO)C(=O)N[C@H](C(=O)N[C@@H](CC(N)=O)C(=O)N[C@H](C(=O)NCC(=O)N[C@@H](CO)C(=O)N[C@@H](CCC(=O)O)C(=O)N[C@H](C(=O)N[C@@H](Cc1ccc(O)cc1)C(N)=O)[C@@H](C)O)C(C)C)[C@@H](C)O, Synthetic analogue; also called compound 27) [N^ε1-[(4S)-4-carboxy-4-(19-carboxynonadecanoylamino)butanoyl]-[Arg17,Pro21,Pro27,Glu35]-h-amylin]
